Reference: patent US12679878B2, “CRF2 receptor agonists and their use in therapy” (SANOFI, priority 2020, dated 2026)
Starred links: 1 amine or outer side, 2 acyl side, 3 side chain; linkers in the order of their positions; H or OH if unused. Non-standard residues stand in square brackets, D forms with d. Groups on a side chain read outwards from the residue. No end group written: not given here. *: point of attachment. C18 diacid = O=C(O)CCCCCCCCCCCCCCCCC(=O)*; C16 diacid = O=C(O)CCCCCCCCCCCCCCC(=O)*; γGlu = O=C(O)[C@H](CCC(=O)[*:2])N[*:1]; AEEA = NCCOCCOCC(=O)O; Aib = CC(C)(N)C(=O)O

These binders were tested against T1, CRF1R receptor (anti-target) (UniProt P34998 24-415, limits assumed) (assay: cell-based or functional assay).
T1 sequence (looked up): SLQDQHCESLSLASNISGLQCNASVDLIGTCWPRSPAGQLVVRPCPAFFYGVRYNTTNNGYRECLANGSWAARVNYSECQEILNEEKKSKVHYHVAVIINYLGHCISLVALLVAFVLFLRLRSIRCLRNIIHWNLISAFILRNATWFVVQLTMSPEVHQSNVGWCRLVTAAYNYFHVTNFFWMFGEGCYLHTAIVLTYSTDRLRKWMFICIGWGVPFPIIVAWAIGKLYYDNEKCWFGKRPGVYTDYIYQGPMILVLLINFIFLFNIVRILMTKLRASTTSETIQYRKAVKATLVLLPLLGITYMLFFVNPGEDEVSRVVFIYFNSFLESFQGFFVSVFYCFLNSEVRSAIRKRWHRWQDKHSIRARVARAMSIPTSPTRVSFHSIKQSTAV

Binder | EC50 [nM] 0% HSA (cAMP, HTRF) | Emax (%) (100% = Sauvagine at 100 nM)
IVLSLD[dV]PIKLK([γGlu-C16 diacid])QILLKQERQKK[Aib]RQKAEKNKQILAQV-NH2 (N-terminus assumed; SMILES CC[C@H](C)[C@H](N)C(=O)N[C@H](C(=O)N[C@@H](CC(C)C)C(=O)N[C@@H](CO)C(=O)N[C@@H](CC(C)C)C(=O)N[C@@H](CC(=O)O)C(=O)N[C@@H](C(=O)N1CCC[C@H]1C(=O)N[C@H](C(=O)N[C@@H](CCCCN)C(=O)N[C@@H](CC(C)C)C(=O)N[C@@H](CCCCNC(=O)CC[C@H](NC(=O)CCCCCCCCCCCCCCC(=O)O)C(=O)O)C(=O)N[C@@H](CCC(N)=O)C(=O)N[C@H](C(=O)N[C@@H](CC(C)C)C(=O)N[C@@H](CC(C)C)C(=O)N[C@@H](CCCCN)C(=O)N[C@@H](CCC(N)=O)C(=O)N[C@@H](CCC(=O)O)C(=O)N[C@@H](CCCNC(=N)N)C(=O)N[C@@H](CCC(N)=O)C(=O)N[C@@H](CCCCN)C(=O)N[C@@H](CCCCN)C(=O)NC(C)(C)C(=O)N[C@@H](CCCNC(=N)N)C(=O)N[C@@H](CCC(N)=O)C(=O)N[C@@H](CCCCN)C(=O)N[C@@H](C)C(=O)N[C@@H](CCC(=O)O)C(=O)N[C@@H](CCCCN)C(=O)N[C@@H](CC(N)=O)C(=O)N[C@@H](CCCCN)C(=O)N[C@@H](CCC(N)=O)C(=O)N[C@H](C(=O)N[C@@H](CC(C)C)C(=O)N[C@@H](C)C(=O)N[C@@H](CCC(N)=O)C(=O)N[C@H](C(N)=O)C(C)C)[C@@H](C)CC)[C@@H](C)CC)[C@@H](C)CC)C(C)C)C(C)C) [peptide of SEQ ID NO: 189] | > 100 nM | 15%
IVLSLD[dV]PIKLK([γGlu-C16 diacid])QILLKQERQK[Aib]QREQAEKNKQILAQV-NH2 (N-terminus assumed; SMILES CC[C@H](C)[C@H](N)C(=O)N[C@H](C(=O)N[C@@H](CC(C)C)C(=O)N[C@@H](CO)C(=O)N[C@@H](CC(C)C)C(=O)N[C@@H](CC(=O)O)C(=O)N[C@@H](C(=O)N1CCC[C@H]1C(=O)N[C@H](C(=O)N[C@@H](CCCCN)C(=O)N[C@@H](CC(C)C)C(=O)N[C@@H](CCCCNC(=O)CC[C@H](NC(=O)CCCCCCCCCCCCCCC(=O)O)C(=O)O)C(=O)N[C@@H](CCC(N)=O)C(=O)N[C@H](C(=O)N[C@@H](CC(C)C)C(=O)N[C@@H](CC(C)C)C(=O)N[C@@H](CCCCN)C(=O)N[C@@H](CCC(N)=O)C(=O)N[C@@H](CCC(=O)O)C(=O)N[C@@H](CCCNC(=N)N)C(=O)N[C@@H](CCC(N)=O)C(=O)N[C@@H](CCCCN)C(=O)NC(C)(C)C(=O)N[C@@H](CCC(N)=O)C(=O)N[C@@H](CCCNC(=N)N)C(=O)N[C@@H](CCC(=O)O)C(=O)N[C@@H](CCC(N)=O)C(=O)N[C@@H](C)C(=O)N[C@@H](CCC(=O)O)C(=O)N[C@@H](CCCCN)C(=O)N[C@@H](CC(N)=O)C(=O)N[C@@H](CCCCN)C(=O)N[C@@H](CCC(N)=O)C(=O)N[C@H](C(=O)N[C@@H](CC(C)C)C(=O)N[C@@H](C)C(=O)N[C@@H](CCC(N)=O)C(=O)N[C@H](C(N)=O)C(C)C)[C@@H](C)CC)[C@@H](C)CC)[C@@H](C)CC)C(C)C)C(C)C) [peptide of SEQ ID NO: 187] | > 100 nM | 43.8%
IVLSLDVPIKLK([AEEA-AEEA-γGlu-C18 diacid])QILLKQERQKK[Aib]REQAETNKRILERV-NH2 (N-terminus assumed; SMILES CC[C@H](C)[C@H](N)C(=O)N[C@H](C(=O)N[C@@H](CC(C)C)C(=O)N[C@@H](CO)C(=O)N[C@@H](CC(C)C)C(=O)N[C@@H](CC(=O)O)C(=O)N[C@H](C(=O)N1CCC[C@H]1C(=O)N[C@H](C(=O)N[C@@H](CCCCN)C(=O)N[C@@H](CC(C)C)C(=O)N[C@@H](CCCCNC(=O)COCCOCCNC(=O)COCCOCCNC(=O)CC[C@H](NC(=O)CCCCCCCCCCCCCCCCC(=O)O)C(=O)O)C(=O)N[C@@H](CCC(N)=O)C(=O)N[C@H](C(=O)N[C@@H](CC(C)C)C(=O)N[C@@H](CC(C)C)C(=O)N[C@@H](CCCCN)C(=O)N[C@@H](CCC(N)=O)C(=O)N[C@@H](CCC(=O)O)C(=O)N[C@@H](CCCNC(=N)N)C(=O)N[C@@H](CCC(N)=O)C(=O)N[C@@H](CCCCN)C(=O)N[C@@H](CCCCN)C(=O)NC(C)(C)C(=O)N[C@@H](CCCNC(=N)N)C(=O)N[C@@H](CCC(=O)O)C(=O)N[C@@H](CCC(N)=O)C(=O)N[C@@H](C)C(=O)N[C@@H](CCC(=O)O)C(=O)N[C@H](C(=O)N[C@@H](CC(N)=O)C(=O)N[C@@H](CCCCN)C(=O)N[C@@H](CCCNC(=N)N)C(=O)N[C@H](C(=O)N[C@@H](CC(C)C)C(=O)N[C@@H](CCC(=O)O)C(=O)N[C@@H](CCCNC(=N)N)C(=O)N[C@H](C(N)=O)C(C)C)[C@@H](C)CC)[C@@H](C)O)[C@@H](C)CC)[C@@H](C)CC)C(C)C)C(C)C) [peptide of SEQ ID NO: 152] | > 100 nM | 4.9%
IVLSLD[dV]PIGLK([AEEA-AEEA-γGlu-C18 diacid])QILLKQERQKK[Aib]RQQAETNKRILERV-NH2 (N-terminus assumed; SMILES CC[C@H](C)[C@H](N)C(=O)N[C@H](C(=O)N[C@@H](CC(C)C)C(=O)N[C@@H](CO)C(=O)N[C@@H](CC(C)C)C(=O)N[C@@H](CC(=O)O)C(=O)N[C@@H](C(=O)N1CCC[C@H]1C(=O)N[C@H](C(=O)NCC(=O)N[C@@H](CC(C)C)C(=O)N[C@@H](CCCCNC(=O)COCCOCCNC(=O)COCCOCCNC(=O)CC[C@H](NC(=O)CCCCCCCCCCCCCCCCC(=O)O)C(=O)O)C(=O)N[C@@H](CCC(N)=O)C(=O)N[C@H](C(=O)N[C@@H](CC(C)C)C(=O)N[C@@H](CC(C)C)C(=O)N[C@@H](CCCCN)C(=O)N[C@@H](CCC(N)=O)C(=O)N[C@@H](CCC(=O)O)C(=O)N[C@@H](CCCNC(=N)N)C(=O)N[C@@H](CCC(N)=O)C(=O)N[C@@H](CCCCN)C(=O)N[C@@H](CCCCN)C(=O)NC(C)(C)C(=O)N[C@@H](CCCNC(=N)N)C(=O)N[C@@H](CCC(N)=O)C(=O)N[C@@H](CCC(N)=O)C(=O)N[C@@H](C)C(=O)N[C@@H](CCC(=O)O)C(=O)N[C@H](C(=O)N[C@@H](CC(N)=O)C(=O)N[C@@H](CCCCN)C(=O)N[C@@H](CCCNC(=N)N)C(=O)N[C@H](C(=O)N[C@@H](CC(C)C)C(=O)N[C@@H](CCC(=O)O)C(=O)N[C@@H](CCCNC(=N)N)C(=O)N[C@H](C(N)=O)C(C)C)[C@@H](C)CC)[C@@H](C)O)[C@@H](C)CC)[C@@H](C)CC)C(C)C)C(C)C) [peptide of SEQ ID NO: 150] | > 100 nM | 7.2%
IVLSLDVPIGLK([AEEA-AEEA-γGlu-C18 diacid])QILLKQERQKK[Aib]REQAETNAQILAQV-NH2 (N-terminus assumed; SMILES CC[C@H](C)[C@H](N)C(=O)N[C@H](C(=O)N[C@@H](CC(C)C)C(=O)N[C@@H](CO)C(=O)N[C@@H](CC(C)C)C(=O)N[C@@H](CC(=O)O)C(=O)N[C@H](C(=O)N1CCC[C@H]1C(=O)N[C@H](C(=O)NCC(=O)N[C@@H](CC(C)C)C(=O)N[C@@H](CCCCNC(=O)COCCOCCNC(=O)COCCOCCNC(=O)CC[C@H](NC(=O)CCCCCCCCCCCCCCCCC(=O)O)C(=O)O)C(=O)N[C@@H](CCC(N)=O)C(=O)N[C@H](C(=O)N[C@@H](CC(C)C)C(=O)N[C@@H](CC(C)C)C(=O)N[C@@H](CCCCN)C(=O)N[C@@H](CCC(N)=O)C(=O)N[C@@H](CCC(=O)O)C(=O)N[C@@H](CCCNC(=N)N)C(=O)N[C@@H](CCC(N)=O)C(=O)N[C@@H](CCCCN)C(=O)N[C@@H](CCCCN)C(=O)NC(C)(C)C(=O)N[C@@H](CCCNC(=N)N)C(=O)N[C@@H](CCC(=O)O)C(=O)N[C@@H](CCC(N)=O)C(=O)N[C@@H](C)C(=O)N[C@@H](CCC(=O)O)C(=O)N[C@H](C(=O)N[C@@H](CC(N)=O)C(=O)N[C@@H](C)C(=O)N[C@@H](CCC(N)=O)C(=O)N[C@H](C(=O)N[C@@H](CC(C)C)C(=O)N[C@@H](C)C(=O)N[C@@H](CCC(N)=O)C(=O)N[C@H](C(N)=O)C(C)C)[C@@H](C)CC)[C@@H](C)O)[C@@H](C)CC)[C@@H](C)CC)C(C)C)C(C)C) [peptide of SEQ ID NO: 156] | > 100 nM | 4%
IVLSLD[dV]PIKLK([AEEA-AEEA-γGlu-C18 diacid])QILLKQERQKK[Aib]REQAETNKRILERV-NH2 (N-terminus assumed; SMILES CC[C@H](C)[C@H](N)C(=O)N[C@H](C(=O)N[C@@H](CC(C)C)C(=O)N[C@@H](CO)C(=O)N[C@@H](CC(C)C)C(=O)N[C@@H](CC(=O)O)C(=O)N[C@@H](C(=O)N1CCC[C@H]1C(=O)N[C@H](C(=O)N[C@@H](CCCCN)C(=O)N[C@@H](CC(C)C)C(=O)N[C@@H](CCCCNC(=O)COCCOCCNC(=O)COCCOCCNC(=O)CC[C@H](NC(=O)CCCCCCCCCCCCCCCCC(=O)O)C(=O)O)C(=O)N[C@@H](CCC(N)=O)C(=O)N[C@H](C(=O)N[C@@H](CC(C)C)C(=O)N[C@@H](CC(C)C)C(=O)N[C@@H](CCCCN)C(=O)N[C@@H](CCC(N)=O)C(=O)N[C@@H](CCC(=O)O)C(=O)N[C@@H](CCCNC(=N)N)C(=O)N[C@@H](CCC(N)=O)C(=O)N[C@@H](CCCCN)C(=O)N[C@@H](CCCCN)C(=O)NC(C)(C)C(=O)N[C@@H](CCCNC(=N)N)C(=O)N[C@@H](CCC(=O)O)C(=O)N[C@@H](CCC(N)=O)C(=O)N[C@@H](C)C(=O)N[C@@H](CCC(=O)O)C(=O)N[C@H](C(=O)N[C@@H](CC(N)=O)C(=O)N[C@@H](CCCCN)C(=O)N[C@@H](CCCNC(=N)N)C(=O)N[C@H](C(=O)N[C@@H](CC(C)C)C(=O)N[C@@H](CCC(=O)O)C(=O)N[C@@H](CCCNC(=N)N)C(=O)N[C@H](C(N)=O)C(C)C)[C@@H](C)CC)[C@@H](C)O)[C@@H](C)CC)[C@@H](C)CC)C(C)C)C(C)C) [peptide of SEQ ID NO: 149] | > 100 nM | 6.6%
